Starred links: 1 amine or outer side, 2 acyl side, 3 side chain; linkers in the order of their positions; H or OH if unused. Positions of bridges follow the written chain, without caps; N, C: chain ends. Non-standard residues stand in square brackets, D forms with d. Groups on a side chain read outwards from the residue. No end group written: not given here. *: point of attachment. X1 = K(γGlu-G-γGlu-17-carboxy-heptadecanoyl), O=C(O)CCCCCCCCCCCCCCCCC(=O)N[C@@H](CCC(=O)NCC(=O)N[C@@H](CCC(=O)NCCCC[C@H](N[*:1])C(=O)[*:2])C(=O)O)C(=O)O; Trp(1-Me) = Cn1cc(C[C@H](N)C(=O)O)c2ccccc21; C18 diacid = O=C(O)CCCCCCCCCCCCCCCCC(=O)*; γGlu = O=C(O)[C@H](CCC(=O)[*:2])N[*:1]; AEEA = NCCOCCOCC(=O)O; Sar = CNCC(=O)O
Key:
[1] = molecular target: T1, Human C3 (Complement tech cat #A113c) (human, UniProt P01024 23-1663); test: cell-based or functional assay
T1 sequence (P01024 23-1663 limits assumed): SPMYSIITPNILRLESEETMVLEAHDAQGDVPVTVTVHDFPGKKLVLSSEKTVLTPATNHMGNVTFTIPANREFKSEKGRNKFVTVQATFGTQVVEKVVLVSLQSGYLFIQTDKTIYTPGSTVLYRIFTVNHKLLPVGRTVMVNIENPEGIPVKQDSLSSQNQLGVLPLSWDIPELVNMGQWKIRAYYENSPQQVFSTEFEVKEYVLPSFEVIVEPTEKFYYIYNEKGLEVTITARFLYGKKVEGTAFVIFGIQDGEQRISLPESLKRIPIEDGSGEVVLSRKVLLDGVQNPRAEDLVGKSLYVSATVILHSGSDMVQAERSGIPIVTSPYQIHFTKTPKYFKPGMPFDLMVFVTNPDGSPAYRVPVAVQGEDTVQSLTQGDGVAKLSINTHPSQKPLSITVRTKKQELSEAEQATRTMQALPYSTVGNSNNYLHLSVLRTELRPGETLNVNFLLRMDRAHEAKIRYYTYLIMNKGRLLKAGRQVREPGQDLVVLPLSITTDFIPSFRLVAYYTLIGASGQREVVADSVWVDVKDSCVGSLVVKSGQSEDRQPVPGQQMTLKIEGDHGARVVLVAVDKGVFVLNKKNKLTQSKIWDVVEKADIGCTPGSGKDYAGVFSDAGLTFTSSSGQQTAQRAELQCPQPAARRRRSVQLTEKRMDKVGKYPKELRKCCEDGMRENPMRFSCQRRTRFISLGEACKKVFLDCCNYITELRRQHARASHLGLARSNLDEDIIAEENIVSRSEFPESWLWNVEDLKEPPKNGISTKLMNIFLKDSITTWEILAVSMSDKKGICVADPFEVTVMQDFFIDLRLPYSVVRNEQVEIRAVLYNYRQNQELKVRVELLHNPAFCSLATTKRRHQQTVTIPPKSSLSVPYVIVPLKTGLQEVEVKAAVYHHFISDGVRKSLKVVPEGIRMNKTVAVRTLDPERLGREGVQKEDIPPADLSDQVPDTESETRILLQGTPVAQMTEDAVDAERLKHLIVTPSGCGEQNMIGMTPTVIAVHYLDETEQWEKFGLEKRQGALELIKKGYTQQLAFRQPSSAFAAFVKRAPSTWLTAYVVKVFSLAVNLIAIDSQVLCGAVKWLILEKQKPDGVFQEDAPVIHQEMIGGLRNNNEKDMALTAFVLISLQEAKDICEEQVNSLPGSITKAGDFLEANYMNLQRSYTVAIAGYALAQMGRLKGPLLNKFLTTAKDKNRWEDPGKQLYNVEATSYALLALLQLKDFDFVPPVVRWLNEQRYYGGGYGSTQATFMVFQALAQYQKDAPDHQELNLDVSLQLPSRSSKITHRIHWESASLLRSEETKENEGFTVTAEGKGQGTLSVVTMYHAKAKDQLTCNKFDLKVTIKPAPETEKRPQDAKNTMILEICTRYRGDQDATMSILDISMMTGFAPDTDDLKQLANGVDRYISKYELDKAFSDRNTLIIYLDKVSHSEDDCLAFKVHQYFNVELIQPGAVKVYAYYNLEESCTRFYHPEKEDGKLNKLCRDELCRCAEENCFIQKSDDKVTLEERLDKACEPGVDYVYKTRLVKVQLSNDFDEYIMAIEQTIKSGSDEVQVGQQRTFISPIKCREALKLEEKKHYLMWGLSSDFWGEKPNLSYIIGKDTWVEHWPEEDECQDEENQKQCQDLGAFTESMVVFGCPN

[2] = molecular target: T1, Human C3 (Complement tech cat #A113c); test: SPR (Biacore T200), human C3 immobilised, peptide injected, 1:1 fit
Protocol: Surface plasmon resonance (SPR) was used to characterize peptides with respect to their binding affinity (Kd) for C3. Human C3 (Complement tech cat #A113c) was immobilised on individual flow cells of CM5 sensor chips (GE Healthcare) using standard amine coupling to a density of approximately 3000 resonance units (RU) in a buffer consisting of 10 mM phosphate pH 7.4, 150 mM NaCl, 0.05% Tween20.
For interaction experiments a multi-cycle experiment approach was used and performed using a BiacoreT200™ instrument (GE Healthcare) at 25° C. Peptides were injected in increasing concentration series (6-8 different concentrations) for 60-120 sat a flow rate of 30 µL/min in a buffer consisting of 10 mM Tris buffer at pH 7.4, with 150 mM NaCl and 0.05% Tween20. This was followed by a dissociation period for up to 10 min. The C3 surface was regenerated between runs by a 45 s injection of 3 M MgCl_2.

Row | Kd [2] [nM] | Binder | inhibition of hemolysis IC50 [1] [nM]
1 | 7.4 | Ac-SEFCI[Trp(1-Me)]QDWGEHRC[Sar]EGESESK([γGlu-Gly-γGlu-C18 diacid])-NH2 (disulfide 4-14; SMILES CC[C@H](C)[C@@H]1NC(=O)[C@@H](NC(=O)[C@H](Cc2ccccc2)NC(=O)[C@H](CCC(=O)O)NC(=O)[C@H](CO)NC(C)=O)CSSC[C@@H](C(=O)N(C)CC(=O)N[C@@H](CCC(=O)O)C(=O)NCC(=O)N[C@@H](CCC(=O)O)C(=O)N[C@@H](CO)C(=O)N[C@@H](CCC(=O)O)C(=O)N[C@@H](CO)C(=O)N[C@@H](CCCCNC(=O)CC[C@H](NC(=O)CNC(=O)CC[C@H](NC(=O)CCCCCCCCCCCCCCCCC(=O)O)C(=O)O)C(=O)O)C(N)=O)NC(=O)[C@H](CCCNC(=N)N)NC(=O)[C@H](Cc2c[nH]cn2)NC(=O)[C@H](CCC(=O)O)NC(=O)CNC(=O)[C@H](Cc2c[nH]c3ccccc23)NC(=O)[C@H](CC(=O)O)NC(=O)[C@H](CCC(N)=O)NC(=O)[C@H](Cc2cn(C)c3ccccc23)NC1=O) [Compound 139] | < 100
2 | 7.6 | Ac-SEFCI[Trp(1-Me)]QDWGEHRC[Sar]EGE[AEEA]ES-{X1-NH2} (disulfide 4-14; SMILES CC[C@H](C)[C@@H]1NC(=O)[C@@H](NC(=O)[C@H](Cc2ccccc2)NC(=O)[C@H](CCC(=O)O)NC(=O)[C@H](CO)NC(C)=O)CSSC[C@@H](C(=O)N(C)CC(=O)N[C@@H](CCC(=O)O)C(=O)NCC(=O)N[C@@H](CCC(=O)O)C(=O)NCCOCCOCC(=O)N[C@@H](CCC(=O)O)C(=O)N[C@@H](CO)C(=O)N[C@@H](CCCCNC(=O)CC[C@H](NC(=O)CNC(=O)CC[C@H](NC(=O)CCCCCCCCCCCCCCCCC(=O)O)C(=O)O)C(=O)O)C(N)=O)NC(=O)[C@H](CCCNC(=N)N)NC(=O)[C@H](Cc2c[nH]cn2)NC(=O)[C@H](CCC(=O)O)NC(=O)CNC(=O)[C@H](Cc2c[nH]c3ccccc23)NC(=O)[C@H](CC(=O)O)NC(=O)[C@H](CCC(N)=O)NC(=O)[C@H](Cc2cn(C)c3ccccc23)NC1=O) [Compound 140] | < 100
3 | 6.6 | Ac-SEFCI[Trp(1-Me)]QDWGEHRC[Sar]EGESESK([γGlu-C18 diacid])-NH2 (disulfide 4-14; SMILES CC[C@H](C)[C@@H]1NC(=O)[C@@H](NC(=O)[C@H](Cc2ccccc2)NC(=O)[C@H](CCC(=O)O)NC(=O)[C@H](CO)NC(C)=O)CSSC[C@@H](C(=O)N(C)CC(=O)N[C@@H](CCC(=O)O)C(=O)NCC(=O)N[C@@H](CCC(=O)O)C(=O)N[C@@H](CO)C(=O)N[C@@H](CCC(=O)O)C(=O)N[C@@H](CO)C(=O)N[C@@H](CCCCNC(=O)CC[C@H](NC(=O)CCCCCCCCCCCCCCCCC(=O)O)C(=O)O)C(N)=O)NC(=O)[C@H](CCCNC(=N)N)NC(=O)[C@H](Cc2c[nH]cn2)NC(=O)[C@H](CCC(=O)O)NC(=O)CNC(=O)[C@H](Cc2c[nH]c3ccccc23)NC(=O)[C@H](CC(=O)O)NC(=O)[C@H](CCC(N)=O)NC(=O)[C@H](Cc2cn(C)c3ccccc23)NC1=O) [Compound 141] | < 100
4 | 4.8 | Ac-SEFCI[Trp(1-Me)]QDWGEHRCTEGE (disulfide 4-14; not fully specified (C-terminus); printed as Ac-SEFC(1)I[1-Me-Trp]QDWGEHRC(1)TEGE[Peg3]ES-K([17-carboxy-heptadecanoyl][γGlu])-NH2) [Compound 142] | < 100

Continued, binder first:

Row | Binder | Kd [2] [nM] | inhibition of hemolysis IC50 [1] [nM]
5 | Ac-SEYCI[Trp(1-Me)]QEWGEHRC[Sar]EGAK([AEEA-γGlu-AEEA-Gly-γGlu-C18 diacid])-NH2 (disulfide 4-14; SMILES CC[C@H](C)[C@@H]1NC(=O)[C@@H](NC(=O)[C@H](Cc2ccc(O)cc2)NC(=O)[C@H](CCC(=O)O)NC(=O)[C@H](CO)NC(C)=O)CSSC[C@@H](C(=O)N(C)CC(=O)N[C@@H](CCC(=O)O)C(=O)NCC(=O)N[C@@H](C)C(=O)N[C@@H](CCCCNC(=O)COCCOCCNC(=O)CC[C@H](NC(=O)COCCOCCNC(=O)CNC(=O)CC[C@H](NC(=O)CCCCCCCCCCCCCCCCC(=O)O)C(=O)O)C(=O)O)C(N)=O)NC(=O)[C@H](CCCNC(=N)N)NC(=O)[C@H](Cc2c[nH]cn2)NC(=O)[C@H](CCC(=O)O)NC(=O)CNC(=O)[C@H](Cc2c[nH]c3ccccc23)NC(=O)[C@H](CCC(=O)O)NC(=O)[C@H](CCC(N)=O)NC(=O)[C@H](Cc2cn(C)c3ccccc23)NC1=O) [Compound 122] | 63 | < 500
6 | Ac-SEYCI[Trp(1-Me)]QEW[Sar]EHRC[Sar]EK[γGlu]AK([AEEA-γGlu-AEEA-Gly-γGlu-C18 diacid])-NH2 (disulfide 4-14; SMILES CC[C@H](C)[C@@H]1NC(=O)[C@@H](NC(=O)[C@H](Cc2ccc(O)cc2)NC(=O)[C@H](CCC(=O)O)NC(=O)[C@H](CO)NC(C)=O)CSSC[C@@H](C(=O)N(C)CC(=O)N[C@@H](CCC(=O)O)C(=O)N[C@@H](CCCCN)C(=O)N[C@@H](CCC(=O)N[C@@H](C)C(=O)N[C@@H](CCCCNC(=O)COCCOCCNC(=O)CC[C@H](NC(=O)COCCOCCNC(=O)CNC(=O)CC[C@H](NC(=O)CCCCCCCCCCCCCCCCC(=O)O)C(=O)O)C(=O)O)C(N)=O)C(=O)O)NC(=O)[C@H](CCCNC(=N)N)NC(=O)[C@H](Cc2c[nH]cn2)NC(=O)[C@H](CCC(=O)O)NC(=O)CN(C)C(=O)[C@H](Cc2c[nH]c3ccccc23)NC(=O)[C@H](CCC(=O)O)NC(=O)[C@H](CCC(N)=O)NC(=O)[C@H](Cc2cn(C)c3ccccc23)NC1=O) [Compound 121] | 30 | < 250
7 | Ac-SEFCI[Trp(1-Me)]QDWGEHRCTEGE-{AEEA-AEEA-X1-NH2} (disulfide 4-14; SMILES CC[C@H](C)[C@@H]1NC(=O)[C@@H](NC(=O)[C@H](Cc2ccccc2)NC(=O)[C@H](CCC(=O)O)NC(=O)[C@H](CO)NC(C)=O)CSSC[C@@H](C(=O)N[C@H](C(=O)N[C@@H](CCC(=O)O)C(=O)NCC(=O)N[C@@H](CCC(=O)O)C(=O)NCCOCCOCC(=O)NCCOCCOCC(=O)N[C@@H](CCCCNC(=O)CC[C@H](NC(=O)CNC(=O)CC[C@H](NC(=O)CCCCCCCCCCCCCCCCC(=O)O)C(=O)O)C(=O)O)C(N)=O)[C@@H](C)O)NC(=O)[C@H](CCCNC(=N)N)NC(=O)[C@H](Cc2c[nH]cn2)NC(=O)[C@H](CCC(=O)O)NC(=O)CNC(=O)[C@H](Cc2c[nH]c3ccccc23)NC(=O)[C@H](CC(=O)O)NC(=O)[C@H](CCC(N)=O)NC(=O)[C@H](Cc2cn(C)c3ccccc23)NC1=O) [Compound 126] | 5.2 | < 100
8 | Ac-SEFCI[Trp(1-Me)]QDWGEHRC[Sar]EGE-{AEEA-AEEA-K(γGlu-Gly-γGlu-15-carboxy-pentadecanoyl)-NH2} (disulfide 4-14) [Compound 127] | 8.5 | < 100
9 | Ac-SEFCI[Trp(1-Me)]QDWGEHRC[Sar]EGE-{AEEA-AEEA-K(γGlu-Gly-γGlu-19-carboxy-nonadecanoyl)-NH2} (disulfide 4-14, also called comp 128) [Compound 128] | 6.5 | < 100
10 | Ac-SEFCI[Trp(1-Me)]QDWGEHRCTEGEGGGK([γGlu-Gly-γGlu-C18 diacid])-NH2 (disulfide 4-14; SMILES CC[C@H](C)[C@@H]1NC(=O)[C@@H](NC(=O)[C@H](Cc2ccccc2)NC(=O)[C@H](CCC(=O)O)NC(=O)[C@H](CO)NC(C)=O)CSSC[C@@H](C(=O)N[C@H](C(=O)N[C@@H](CCC(=O)O)C(=O)NCC(=O)N[C@@H](CCC(=O)O)C(=O)NCC(=O)NCC(=O)NCC(=O)N[C@@H](CCCCNC(=O)CC[C@H](NC(=O)CNC(=O)CC[C@H](NC(=O)CCCCCCCCCCCCCCCCC(=O)O)C(=O)O)C(=O)O)C(N)=O)[C@@H](C)O)NC(=O)[C@H](CCCNC(=N)N)NC(=O)[C@H](Cc2c[nH]cn2)NC(=O)[C@H](CCC(=O)O)NC(=O)CNC(=O)[C@H](Cc2c[nH]c3ccccc23)NC(=O)[C@H](CC(=O)O)NC(=O)[C@H](CCC(N)=O)NC(=O)[C@H](Cc2cn(C)c3ccccc23)NC1=O) [Compound 130] | 4.4 | < 100
11 | Ac-FCIWQDWGEHRCT-NH2 (disulfide 2-12; SMILES CC[C@H](C)[C@@H]1NC(=O)[C@@H](NC(=O)[C@H](Cc2ccccc2)NC(C)=O)CSSC[C@@H](C(=O)N[C@H](C(N)=O)[C@@H](C)O)NC(=O)[C@H](CCCNC(=N)N)NC(=O)[C@H](Cc2c[nH]cn2)NC(=O)[C@H](CCC(=O)O)NC(=O)CNC(=O)[C@H](Cc2c[nH]c3ccccc23)NC(=O)[C@H](CC(=O)O)NC(=O)[C@H](CCC(N)=O)NC(=O)[C@H](Cc2c[nH]c3ccccc23)NC1=O) [Compound 23] | 2.8 | < 100

Reference: patent US11965039B2, “Compstatin analogues and their medical uses” (priority 2018, dated 2024)
